Experimental data reported in patent US20180305451A1.
Where a chain is given by its changes, count along the chain named.

B1: αhHIDE1_AbD25754_hIgG1_Ser_mAb (antibody, V domains shown)
VH: QVQLVQSGAEVKKPGASVKVSCKASGYTFSGYGMHWVRQAPGQGLEWMGIISPSNGNTNYAQKFQGRVTMTRDTSISTAYMELSRLRSEDTAVYYCAREVYYGLDVWGQGTLVTVSS
VL: DIQMTQSPSSLSASVGDRVTITCRASQSISSWLNWYQQKPGKAPQLLIYGASSLQSGVPSRFSGSGSGTDFTLTISSLQPEDFATYYCQQYISIPITFGQGTKVEIK
B2: αhHIDE1_AbD25755_hIgG1_Ser_mAb (antibody, V domains shown)
VH: QVQLVQSGAEVKKPGSSVKVSCKASGGTFSSYAISWVRQAPGQGLEWMGGIVPKFGTAYYAQKFQGRVTITADESTSTAYMELSSLRSEDTAVYYCARENLVYSAIAIWGQGTLVTVSS
VL: B1 VL with S28D, S31N, Q45K, Y91V, I92T, I94T, I96F
B3: αhHIDE1_AbD25760_hIgG1_Ser_mAb (antibody, V domains shown)
VH: QVQLVQSGAEVKKPGSSVKVSCKASGGTFSDYAINWVRQAPGQGLEWMGGIIPNFGTANYAQKFQGRVTITADESTSTAYMELSSLRSEDTAVYYCARGMRSLGGLSYYFDLWGQGTLVTVSS
VL: B1 VL with S30N, W32Y, Q45K, G50A, S93H, I94Y

What follows are binders tested against cyno HIDE1 (cyno) (assay: FACS, Geo mean ratio of HEK293 cells over-expressing cyno HIDE1 to HEK293 empty vector, antibody 10 ug/ml).
cyno HIDE1 (cyno), sequence (chain, as listed by the source limits assumed, form in doubt): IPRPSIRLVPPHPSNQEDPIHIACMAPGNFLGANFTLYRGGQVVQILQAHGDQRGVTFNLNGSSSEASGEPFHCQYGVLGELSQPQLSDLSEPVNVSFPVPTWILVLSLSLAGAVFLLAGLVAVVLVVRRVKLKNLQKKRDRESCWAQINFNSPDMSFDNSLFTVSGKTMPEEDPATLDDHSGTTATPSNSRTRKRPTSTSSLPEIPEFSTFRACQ

Compared with B1, B2 is lower in rMFI OX/EV, 10ug/ml, cHIDE1 (CR): 353 for the first, 328 for the second.

B3 gave a rMFI OX/EV, 10ug/ml, cHIDE1 (CR) of 132.
